Source: paper PMC2814788

Target: C-terminally myc-tagged Sec8 (Sec8-myc) (S. cerevisiae) (UniProt P32855)
Assay: co-IP

UniProt P32855, sequence (P32855 whole entry): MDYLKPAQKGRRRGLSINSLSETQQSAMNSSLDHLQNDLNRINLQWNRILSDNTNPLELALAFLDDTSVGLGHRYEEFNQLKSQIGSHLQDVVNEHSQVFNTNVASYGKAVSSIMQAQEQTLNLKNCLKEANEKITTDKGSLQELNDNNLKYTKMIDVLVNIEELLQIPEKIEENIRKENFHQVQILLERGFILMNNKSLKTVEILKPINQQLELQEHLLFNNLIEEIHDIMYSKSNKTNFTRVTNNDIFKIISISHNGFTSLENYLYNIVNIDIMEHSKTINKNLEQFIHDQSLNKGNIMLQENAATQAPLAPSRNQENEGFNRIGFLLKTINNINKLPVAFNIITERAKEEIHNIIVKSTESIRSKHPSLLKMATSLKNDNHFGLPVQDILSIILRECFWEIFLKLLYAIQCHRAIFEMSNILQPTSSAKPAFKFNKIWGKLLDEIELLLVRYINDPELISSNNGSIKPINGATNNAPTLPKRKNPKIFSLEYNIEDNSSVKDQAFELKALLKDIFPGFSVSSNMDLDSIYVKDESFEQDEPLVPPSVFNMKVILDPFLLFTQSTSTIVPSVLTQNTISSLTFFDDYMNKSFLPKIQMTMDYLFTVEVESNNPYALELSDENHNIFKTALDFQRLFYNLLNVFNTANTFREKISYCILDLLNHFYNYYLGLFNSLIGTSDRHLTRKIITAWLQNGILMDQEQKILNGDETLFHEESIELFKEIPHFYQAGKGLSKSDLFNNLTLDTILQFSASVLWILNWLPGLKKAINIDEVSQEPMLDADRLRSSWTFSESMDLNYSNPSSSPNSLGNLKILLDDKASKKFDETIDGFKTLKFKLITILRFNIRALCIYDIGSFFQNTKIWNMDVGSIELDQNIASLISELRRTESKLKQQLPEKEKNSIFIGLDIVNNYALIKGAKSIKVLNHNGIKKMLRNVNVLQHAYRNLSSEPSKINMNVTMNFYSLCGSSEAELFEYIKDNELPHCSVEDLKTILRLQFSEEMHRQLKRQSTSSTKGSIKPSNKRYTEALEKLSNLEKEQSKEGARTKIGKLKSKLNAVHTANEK

## Exo70-E557K (gain-of-function mutant, in yeast lysate) (from UniProt P19658 63-623) (natural protein)
  reduction of coprecipitated Exo70 against wild type: 25%
